A word on the IC50: it is the point on the concentration scale where inhibition reaches its midpoint. A low value points to greater potency.

The source of these data is US12252534 (Scripps Research, dated 2025).

In assay [1] the target is T1, human CD3 on human T cells (Jurkat) (human, UniProt P07766 23-207; P04234 22-171; P09693 23-182).
T1 construct: whole, on cells; also called huCD3+; cell surface CD3 on human (Jurkat) T cells
Put plainly: flow cytometry, Jurkat cells, 0.32 nM antibody. The source says:
(§1) To express humanized Fabs in mammalian cells, VH genes (VH1 and VH2) and VL genes (VL1~VL10) shown in FIG. 2 were individually cloned into the pFUSE vector under the IL2 signal peptide sequence. Light and heavy chains expression vectors were used to co-transfect Expi293F cells according to manufacturer's protocol. On day 3 or 4, cultured media was harvested and secreted Fabs were purified by Protein G chromatography. Binding affinity of humanized candidates for human and cynomolgus T cells were evaluated by flow cytometry. Briefly, cells were incubated with humanized Fabs at 4° C. for 30 min and washed twice with staining buffer (1% BSA in PBS). […] After several washes, samples were acquired on a BD LSR II or BD Accuri C6 and analyzed using FlowJo 7.6.2 software.

In assay [2] the target is T1, human CD3 on human T cells (Jurkat). The experiment in a line: flow cytometry, Jurkat cells, 8 nM antibody.
Source text: as §1

The target is the same in assay [3]. Put plainly: flow cytometry titration on Jurkat cells.
Source text: as §1

For assay [4] the target is unchanged. The experiment in a line: flow cytometry, Jurkat cells, 1.6 nM antibody.
Source text: as §1
Background: Flow cytometry measures light scatter and fluorescence of single cells or particles in a stream.

For assay [5] the target is unchanged. Put plainly: flow cytometry, Jurkat cells, 40 nM antibody.
Source text: as §1

The target is the same in assay [6]. Put plainly: flow cytometry, Jurkat cells, 0 nM antibody (background).
Source text: as §1

Assay [7] has the same target. The experiment in a line: flow cytometry, Jurkat cells, 1000 nM antibody.
Source text: as §1

For assay [8] the target is unchanged. Put plainly: flow cytometry, Jurkat cells, 200 nM antibody.
Source text: as §1

In assay [9] the target is T2, cynomolgus CD3 on cynomolgus T cells (HSC-F) (cynomolgus monkey, UniProt Q95LI5 22-198; Q95LI8 22-171; Q95LI7 23-181).
T2 construct: whole, on cells; also called cyCD3+; cell surface CD3 on cynomolgus (HSC-F) T cells
Put plainly: flow cytometry titration on HSC-F cells. The source says:
(§2) Flow cytometry was used to assess for potential differential binding to cell surface CD3 on human (Jurkat) and cynomolgus T cells as a result of the "de-immunization" process. […] After several washes, samples were acquired on a BD LSRII or BD Accuri C6 and analyzed using FlowJo software.

Assay [10] addresses T1, human CD3 on human T cells (Jurkat). Put plainly: flow cytometry titration on Jurkat cells.
Source text: as §2
The source holds these as a separate data set.

Assay [11] deals with T2, cynomolgus CD3 on cynomolgus T cells …. The experiment in a line: flow cytometry on HSC-F (cyCD3+) cells, detected with PE-conjugated anti-human kappa secondary antibody; control is the secondary antibody alone. The source says:
Flow cytometry was used to test binding of conjugates to cell surface CD3 on human (Jurkat) and cynomolgus (HSC-F) T cells or PSMA on C4-2 cells.

Where a chain is given by its changes, count along the chain named. Numbers in names are those of the source. Where two headings read alike, the source gives them in different places.

T1 sequence (P07766 23-207, chain 1 of 3): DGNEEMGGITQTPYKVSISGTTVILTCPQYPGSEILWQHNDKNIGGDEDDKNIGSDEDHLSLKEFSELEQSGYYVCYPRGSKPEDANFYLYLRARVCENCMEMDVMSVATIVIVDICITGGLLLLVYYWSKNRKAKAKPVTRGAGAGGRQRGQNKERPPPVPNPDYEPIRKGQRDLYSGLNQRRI
T1 sequence (P04234 22-171, chain 2 of 3): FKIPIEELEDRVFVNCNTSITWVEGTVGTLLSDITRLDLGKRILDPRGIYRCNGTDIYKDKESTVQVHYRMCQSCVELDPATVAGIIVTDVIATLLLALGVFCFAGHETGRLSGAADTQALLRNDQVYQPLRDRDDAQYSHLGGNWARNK
T1 sequence (P09693 23-182, chain 3 of 3): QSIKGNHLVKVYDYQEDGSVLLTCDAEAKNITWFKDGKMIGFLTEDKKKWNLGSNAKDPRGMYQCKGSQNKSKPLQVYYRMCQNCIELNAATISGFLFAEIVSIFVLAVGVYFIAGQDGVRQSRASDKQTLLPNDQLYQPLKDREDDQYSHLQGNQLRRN
T2 sequence (Q95LI5 22-198, chain 1 of 3): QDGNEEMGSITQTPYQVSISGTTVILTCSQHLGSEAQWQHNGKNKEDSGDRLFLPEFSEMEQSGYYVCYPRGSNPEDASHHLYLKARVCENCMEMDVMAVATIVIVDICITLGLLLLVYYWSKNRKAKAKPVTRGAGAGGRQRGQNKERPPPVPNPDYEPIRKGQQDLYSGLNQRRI
T2 sequence (Q95LI8 22-171, chain 2 of 3): as the sequence (P04234 22-171, chain 2 of 3) above, with I5V, N15K, I20V, S32T, D33N, I34N, T64A, S74N, V83L, H141R counted along it
T2 sequence (Q95LI7 23-181, chain 3 of 3): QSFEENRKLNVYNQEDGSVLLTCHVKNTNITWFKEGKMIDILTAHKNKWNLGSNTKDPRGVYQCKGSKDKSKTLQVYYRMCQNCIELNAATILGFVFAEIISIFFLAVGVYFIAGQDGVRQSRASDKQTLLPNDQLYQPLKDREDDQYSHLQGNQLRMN

B1: HuL3H2 (Fab, V domains shown)
VH: EVQLVESGGGLVQPGGSLKLSCAASGFTFNTYAMNWVRQASGKGLEWVARIRSKYNNYATYYADSVKDRFTISRDDSKNTLYLQMNSLKTEDTAVYYCVRHGNFGNSYVSWFAYWGQGTLVTVSS
VL: QAVVTQEPSLTVSPGGTVTLTCGSSTGAVTTSNYANWVQQKPGQAFRGLIGGTNKRAPWTPARFSGSLLGGKAALTISGAQPEDEAEYYCALWYSNLWVFGGGTKLTVL
notes: Humanized Fab expressed in Expi293F; also called VL3 + VH2 humanized Fab
As to B1, the MFI in assay [1] turned out to be 600; in assay [2] it was 610; in [4] it was 610; in [5] it was 650; in [6], 559; in assay [7], 666. In [8], this molecule had an MFI of 643. Also, the IC50 in assay [3] was 17.7 nM.

B2: Murine anti-CD3 (antibody, V domains shown)
VH: B1 VH with G15K, S41P, K78Q, N79S, T80I, S87N, V95M
VL: QAVVTQESALTTSPGETVTLTCRSSTGAVTTSNYANWVQEKPDHLFTGLIGGTNKRAPGVPARFSGSLIGDKAALTITGAQTEDEAIYFCALWYSNLWVFGGGTKLTVL
notes: also called murine anti-CD3 VL/VH
Turning to B2, the MFI in [1] stood at 3560; in assay [2], 28500; in assay [4] it was 10500; in [5], 41400; in [6], 1400; in assay [7], 54400. The molecule also returned an MFI in [8] of 50600. Also, the IC50 in [3] was 7.73 nM.

B3: huL5H2 (SEQ ID NOS: 40, 42), pAcF double mutant Fab, unconjugated (Fab, V domains shown)
VH: B1 VH
VL: QAVVTQEPSLTVSPGGTVTLTCRSSTGAVTTSNYANWVQQKPDHLFRGLIGGTNKRAPGTPARFSGSLLGDKAALTISGAQPEDEAEYYCALWYSNLWVFGGGTKLTVLK
modifications: p-acetylphenylalanine (pAcF) in place of S205 (S205TAG); p-acetylphenylalanine (pAcF) in place of K141 (K141TAG)
notes: Expressed in E. coli with an orthogonal tRNA/synthetase; also called VL5 kappa 205TAG + H2 141TAG
Regarding B3, the IC50 was 3.8 nM in [9] and 5.9 nM in assay [10].

B4: huL5H2 (heavy chain SEQ ID NO: 41 and light chain SEQ ID NO: 39) (Fab, V domains shown)
VH: B1 VH
VL: B3 VL
notes: also called VL5 kappa + H2 Fab
For the molecule B4, the MFI in assay [1] was found to be 4430; in assay [2], 31700; in assay [4], 13400; in [5] it was 41600; in assay [6], 1400; in assay [7], 51800. In assay [8], this molecule showed an MFI of 48000. For the same molecule, the concentration for half-maximal inhibition (IC50) in assay [3] is 4.46 nM.

B5: HuL4H2 (Fab, V domains shown)
VH: B1 VH
VL: B1 VL with G51Y, G71D
notes: Humanized Fab expressed in Expi293F; also called VL4 + VH2 humanized Fab
B5: the MFI in [1] is 599; in assay [2] it was 620; in assay [4], 615; in assay [5], 620; in assay [6], 559; in assay [7], 650. Besides, in [8], the MFI was 620.

B6: DI-huL5H2 (SEQ ID NOS: 40, 44), de-immunized pAcF mutant Fab, unconjugated (Fab, V domains shown)
VH: B1 VH with K19R, S41P, K89R, T90A
VL: B3 VL
modifications: p-acetylphenylalanine (pAcF) at light chain position 205 (205TAG); p-acetylphenylalanine (pAcF) at heavy chain position 141 (141TAG)
notes: The heavy chain carries the de-immunizing mutations K19R, S41P, K89R and T90A relative to huL5H2; also called huL5H2_DI
B6: the IC50 turned out to be 3.4 nM in [9] and 4.6 nM in assay [10].

B7: HuL7H2 (Fab, V domains shown)
VH: B1 VH
VL: B1 VL with G23R, W59G, G71D
notes: Humanized Fab expressed in Expi293F; also called VL7 + VH2 humanized Fab
For B7, the MFI in [1] came out at 1570; in [2], 4240; in assay [4], 2040; in assay [5] it was 13600; in assay [6], 1250; in [7], 35400. Moreover, the MFI in assay [8] is 28900. In [3], the IC50 stood at 70.4 nM.

B8: HuL1H1 (Fab, V domains shown)
VH: B1 VH with A49G
VL: B1 VL with V38F, F46P, G48T, G51Y
notes: Detected with anti-human kappa; also called VL1 + VH1 humanized Fab
As to B8, the MFI in assay [1] worked out at 1400; in assay [2], 1450; in [4], 1440; in assay [5] it was 1450; in assay [6], 1400; in [7], 1470. Besides, in [8], the MFI stood at 1460.

B9: HuL2H2 (Fab, V domains shown)
VH: B1 VH
VL: B1 VL with G51Y
notes: Humanized Fab expressed in Expi293F; also called VL2 + VH2 humanized Fab
Turning to B9, the MFI in assay [1] came to 1400; in [2], 1450; in assay [4] it was 1440; in [5], 1450; in assay [6], 1400; in assay [7], 1470. In assay [8], this molecule returned an MFI of 1460.

B10: HuL8H2 (Fab, V domains shown)
VH: B1 VH
VL: B1 VL with G43D, Q44H, A45L, W59G
notes: Humanized Fab expressed in Expi293F; also called VL8 + VH2 humanized Fab
For B10, the MFI in assay [1] amounted to 837; in [2] it was 7670; in assay [4] it was 2120; in assay [5], 22000; in assay [6], 559; in assay [7] it was 54600. Also, the MFI in assay [8] was 42000. Half-maximal inhibition in [3] (IC50) required 78 nM.

B11: HuL10H2 (Fab, V domains shown)
VH: B1 VH
VL: B2 VL with S8P, A9S, E16G, E40Q, T78S, T82P, I87E, F89Y
notes: Humanized Fab expressed in Expi293F; also called VL10 + VH2 humanized Fab
B11: the MFI in [1] is 688; in assay [2], 3270; in assay [4] it was 1610; in [5] it was 12700; in [6], 559; in assay [7] it was 46300. This molecule also came in with an MFI in [8] of 31300. For the same molecule, the IC50 in assay [3] was 139 nM.

B12: HuL6H2 (Fab, V domains shown)
VH: B1 VH
VL: B1 VL with G23R, V38F, G43D, Q44H, A45L, F46P, G48T, G51Y, W59G, G71D
notes: Humanized Fab expressed in Expi293F; also called VL6 + VH2 humanized Fab
As for B12, the MFI in assay [1] was found to be 572; in [2] it was 573; in assay [4] it was 597; in assay [5] it was 598; in assay [6] it was 559; in assay [7] it was 2200. In addition, the MFI in [8] stood at 835. In addition, the IC50 in [3] came out at 677 nM.

B13: HuL9H2 (Fab, V domains shown)
VH: B1 VH
VL: B1 VL with W59G, T60V, A62D
notes: Humanized Fab expressed in Expi293F; also called VL9 + VH2 humanized Fab
Turning to B13, the MFI in assay [1] came to 637; in assay [2], 2760; in [4], 986; in assay [5] it was 9950; in assay [6] it was 559; in assay [7], 39400. In addition, the MFI in [8] is 27900. The molecule also displayed an IC50 in [3] of 119 nM.

B14: UCHT-1-p-TriA (2×DUPA) (Fab, V domains shown)
VH: EVQLVESGGGLVQPGGSLRLSCAASGYSFTGYTMNWVRQAPGKGLEWVALINPYKGVSTYNQKFKDRFTISVDKSKNTAYLQMNSLRAEDTAVYYCARSGYYGDSDWYFDVWGQGTLVTVSS
VL: DIQMTQSPSSLSASVGDRVTITCRASQDIRNYLNWYQQKPGKAPKLLIYYTSRLESGVPSRFSGSGSGTDYTLTISSLQPEDFATYYCQQGNTLPWTFGQGTKVEIKR
modifications: one pAcF conjugated to p-TriA (DUPA-linker); position in UCHT-1 not stated
Regarding B14, in assay [11], the binding result was “no binding”.
